Residue numbers refer to the chain shown, from its start.
T1: human CEACAM5 on CEACAM5-expressing cancer cell lines (human, UniProt P06731 35-685)
T1 construct: whole, on cells; also called CEACAM5 on SK-CO-1, MKN-45, HPAF-II, SNU-C1, Ls174T, LoVo cells
T1 sequence (looked up): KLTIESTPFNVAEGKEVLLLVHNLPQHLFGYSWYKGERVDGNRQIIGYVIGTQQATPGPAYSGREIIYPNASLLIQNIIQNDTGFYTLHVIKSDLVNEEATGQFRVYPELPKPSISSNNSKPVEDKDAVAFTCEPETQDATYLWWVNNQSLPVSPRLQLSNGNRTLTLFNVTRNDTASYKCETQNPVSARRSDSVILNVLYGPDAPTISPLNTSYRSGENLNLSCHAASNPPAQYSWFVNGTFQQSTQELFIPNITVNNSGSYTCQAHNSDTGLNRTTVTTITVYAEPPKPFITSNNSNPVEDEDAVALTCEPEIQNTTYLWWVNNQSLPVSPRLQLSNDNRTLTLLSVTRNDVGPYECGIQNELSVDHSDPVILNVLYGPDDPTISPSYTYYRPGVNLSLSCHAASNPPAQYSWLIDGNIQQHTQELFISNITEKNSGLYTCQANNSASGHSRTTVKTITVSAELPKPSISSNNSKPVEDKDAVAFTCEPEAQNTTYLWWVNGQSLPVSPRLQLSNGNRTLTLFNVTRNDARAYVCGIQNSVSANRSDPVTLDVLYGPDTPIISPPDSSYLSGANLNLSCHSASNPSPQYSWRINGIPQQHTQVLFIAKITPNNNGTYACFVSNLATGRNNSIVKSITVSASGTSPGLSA

T2: his-tagged recombinant huCEACAM3 (R&D Systems, #9868-CM) (human, UniProt P40198 35-155)
T2 construct: Bought reagent; also called rec. hCEACAM3; recombinant soluble human CEACAM3; not shown: His tag
T2 sequence (looked up): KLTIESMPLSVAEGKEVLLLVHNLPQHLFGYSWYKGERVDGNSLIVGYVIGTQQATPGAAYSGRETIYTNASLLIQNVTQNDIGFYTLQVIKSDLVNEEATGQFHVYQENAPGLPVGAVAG

T3: recombinant human CEACAM5 Extra Cellular Domain (ECD) soluble protein (human, UniProt P06731 35-685, biotinylated in the competition ELISA of Example 4)
T3 construct: extracellular domain; also called rec. hCEACAM5; recombinant soluble human CEACAM5; not shown: C-terminal Avitag and hexa-histidine tag, or a human Fc or a mouse Fc region; which construct stood in each assay is not
T3 sequence (looked up): T1 sequence (looked up)

B1: K2AC84 (bispecific antibody, human IgG1, kappa, lambda)
heavy: not shown
light 1: QSVLTQPPSVSAAPGQKVTISCSGSSSNIGIGLVSWYQQLPGTAPKLLIYNVNTRPSGIPDRFSGSKSGTSATLGITGLQTGDEADYYCGTWDFSYRVDFGGGTKLTVLGQPKAAPSVTLFPPSSEELQANKATLVCLISDFYPGAVTVAWKADSSPVKAGVETTTPSKQSNNKYAASSYLSLTPEQWKSHRSYSCQVTHEGSTVEKTVAPTECS
light 2: not shown
notes: Kappa-lambda body; also called CD47xCEACAM5 bispecific antibody K2AC84; AC84 (CEACAM5 arm)
B2: K2AC22 (bispecific antibody, human IgG1, kappa, lambda)
heavy: not shown
light 1: B1 light 1 with G30A, I31N, L33I, N51F, V52D, T54L, R97G, V98I, D99V
light 2: not shown
notes: Kappa-lambda body, human IgG1, one arm for CEACAM5 and one for CD47; comparison antibody from WO2019234576; also called state of the art bispecific CEAxCD47 antibody K2AC22; CD47xCEACAM5 bispecific antibody K2AC22
B3: K2AC100 (bispecific antibody, human IgG1, kappa, lambda)
heavy: not shown
light 1: B1 light 1 with I31Y, V52G, T54I
light 2: not shown
notes: Kappa-lambda body; also called CD47xCEACAM5 bispecific antibody K2AC100; AC100 (CEACAM5 arm)

Legend:
[1] = target: T1, human CEACAM5 on CEACAM5-expressing …; experiment: flow cytometry on SNU-C1 cells (carry CEACAM5 and CD47), PE anti-human IgG Fc
Protocol: (§1) The binding of CD47×CEACAM5 bispecific antibodies was tested on CEACAM5-expressing human gastric adenocarcinoma cells (e.g. MKN-45), on CEACAM5-expressing human colorectal cancer cells (SK-CO-1, SNU-C1, Ls174T, and LoVo), and on CEACAM5-expressing pancreatic adenocarcinoma cells (HPAF-II).
(§2) Cells were harvested, counted, checked for viability and resuspended at 3×10⁶ cells/ml in FACS buffer (PBS 2% BSA, 0.1% NaN3). 100 μl of the cell suspension was distributed in V-bottom 96-well plates (3×10⁵ cells/well). The supernatant was removed by centrifugation 3 minutes at 4° C., 1300 rpm. Increasing concentrations of the antibody according to the invention were then added into the wells and incubated for 15 minutes at 4° C. Cells were washed twice with cold FACS buffer and re-incubated for further 15 minutes at 4° C. with the PE (R-phycoerythrin)-conjugated mouse anti-human IgG Fc secondary antibody (SouthernBiotech, pre-diluted 1:100 in FACS buffer). Cells were washed twice with cold FACS buffer and resuspended in 300 μl FACS buffer with 1:15000-diluted SytoxBlue (Life Technologies). Fluorescence, specifically mean fluorescence […] (MFI), was determined using a Cytoflex […] flow cytometer. Binding curves and […] and Emax values were obtained and calculated using GraphPad Prism7 software.

[2] = target: T2, his-tagged recombinant huCEACAM3 (R&D …); experiment: BLI (Octet), KD on CEACAM3 against KD on CEACAM5
Protocol: (§3) The affinity of the anti-human CEACAM5 arm of the CD47×CEACAM5 bispecific antibodies of the invention for recombinant soluble human CEACAM5 was determined using the Bio-Layer Interferometry (BLI) technology. An OctetRED96 instrument and Protein A biosensors were used (Sartorius). The measurement was performed at 30° C. After hydration, pre-conditioning and a baseline step in Kinetic buffer (PBS, 0.002% Tween 20, 0.01% BSA, Kathon; Sartorius), biosensors were loaded for 5 min with the κλ body at 0.5 μg/mL in Kinetic buffer. Then, biosensors were dipped into a serial dilution of recombinant human CEACAM5 Extra Cellular Domain (ECD) soluble protein (produced in house), starting at 50 nM with a 2× dilution factor. The association and dissociation phases were monitored for 600 seconds each. Biosensors were regenerated using 10 mM glycine pH 1.7. A standard acquisition rate was applied (5.0 Hz, averaging by 20). Curves were processed with a reference well subtraction, a Y alignment on the baseline, without interstep correction. The affinity was measured applying a 1:1 global fitting model on the full association and dissociation steps. The binding affinity (KD) of the bispecific antibodies of the invention to recombinant human CD47 was determined by the same experimental procedure.
The affinity of the anti-human CEACAM5 arms of the CD47×CEACAM5 bispecific antibodies of the invention for recombinant soluble human CEACAM3 was determined using the Bio-Layer Interferometry (BLI) technology and an OctetRED96 instrument. HIS1K biosensors (Sartorius), loaded with an anti-His tag antibody, were used to capture his-tagged recombinant huCEACAM3 (R&D Systems, #9868-CM). The measurement was performed at 30° C. After hydration, pre-conditioning and a baseline step in Kinetic buffer (PBS, 0.002% Tween 20, 0.01% BSA, Kathon; Sartorius), biosensors were loaded for 5 min with the recombinant huCEACAM3 at 5 μg/mL in Kinetic buffer. […] The association and dissociation phases were monitored for 60 seconds and 120 seconds respectively. […]

[3] = target: T1, human CEACAM5 on CEACAM5-expressing …; experiment: flow cytometry on MKN-45 cells (carry CEACAM5 and CD47), PE anti-human IgG Fc
Protocol: as §1, §2

[4] = target: T1, human CEACAM5 on CEACAM5-expressing …; experiment: flow cytometry on LoVo cells (carry CEACAM5 and CD47), PE anti-human IgG Fc
Protocol: as §1, §2

[5] = target: T3, recombinant human CEACAM5 Extra …; experiment: BLI (Octet), antibody on Protein A biosensor, soluble CEACAM5 ECD as analyte
Protocol: as §3

| Binder | EC50 [1] | Emax (MFI) [1] | Fold difference hCEACAM3/hCEACAM5 (ratio of KD) [2] | EC50 [3] | Emax (MFI) [3] | EC50 [4] | Emax (MFI) [4] | Kd [5] |
| --- | --- | --- | --- | --- | --- | --- | --- | --- |
| B1 | 2.47 nM | 370000 MFI | 137 fold | 7.3 nM | 1.52e+06 MFI | 16 nM | 360000 MFI | 2.63 nM |
| B2 | 10.7 nM | 240000 MFI | 83 fold | 21.3 nM | 1.16e+06 MFI | 44 nM | 230000 MFI | 120 nM |
| B3 | 3.27 nM | 300000 MFI | 146 fold | 8.7 nM | 1.3e+06 MFI | 18.7 nM | 280000 MFI | 4.8 nM |
